Test results taken from publication doi:10.1101/2024.10.02.616342.

Target: mNG-BCR-ABL (biotinylated Avitag-linker-mNeon Green-linker-p210 BCR-ABL, full length) (human) (UniProt P00519)
Experiment: single-molecule TIRF pull-down

**Q.** Which percent dimeric does the source give for “mNG-BCR-ABL (biotinylated Avitag-linker-mNeon Green-linker-p210 BCR-ABL, full length) (from UniProt P00519-1 28-1130)” here?
**A.** Its percent dimeric is 55%.

**Q.** What about the percent monomeric of the same substance?
**A.** Its percent monomeric is 40%.

**Q.** And the percent tetramer?
**A.** The percent tetramer was 5%.

**Q.** And the stoichiometry N?
**A.** The stoichiometry N was 2.
